Measurements published in patent US20240279288A1, “APPLICATION OF PLANT JAZ PROTEINS AND DERIVED POLYPEPTIDES IN PREVENTION AND TREATMENT OF HUMAN AND ANIMAL TUMORS” (ANYANG INSTITUTE OF SINO-COTTON INDUSTRY INNOVATION, priority 2021, published 2024).

Columns and labels:
GhNINJA = assay: Yeast two hybrid with GhNINJA; assay type: binding, cotton
Experimental: The study on Arabidopsis had shown that the inhibition of JAZ protein on JA signaling was mainly achieved by inhibiting the transcription factor function of MYC, which had been experimentally verified by us in cotton. Based on the phylogenetic tree of Arabidopsis and cotton JAZs, we screened 6 cotton JAZs (GhJAZ1, GhJAZ7, GhJAZ9, GhJAZ10, GhJAZ11 and GhJAZ31), which were analyzed with GhMYC2, GhNINJA, GhTPL, GhHDA6, and GhCOI1 for yeast two hybrid. The amino acid sequence of GhJAZ1 was set forth in SEQ ID No. 4, and the corresponding encoding gene sequence was set forth in SEQ ID No. 39; the amino acid sequence of GhJAZ7 was set forth in SEQ ID No. 7, and the corresponding encoding gene sequence was set forth in SEQ ID No. 42; the amino acid sequence of GhJAZ9 was set forth in SEQ ID No. 2, and the corresponding encoding gene sequence was set forth in SEQ ID No. 37; the amino acid sequence of GhJAZ10 was set forth in SEQ ID No. 3, and the corresponding encoding gene sequence was set forth in SEQ ID No. 38; the amino acid sequence of GhJAZ11 was set forth in SEQ ID No. 5, and the corresponding encoding gene sequence was set forth in SEQ ID No. 40; and the amino acid sequence of GhJAZ31 was set forth in SEQ ID No. 9, and the corresponding encoding gene sequence was set forth in SEQ ID No. 44. […]

D3 domain deficient uPAR = molecular target: T1, D3 domain deficient uPAR (Homo sapiens, UniProt Q03405, DEL192-274); assay: Yeast two hybrid with D3 domain deficient uPAR; assay type: binding
T1 construct: expressed in transfected cells; host or cells: yeast Y2HGold
Description: […]

Sequence of GhNINJA (as listed by the source): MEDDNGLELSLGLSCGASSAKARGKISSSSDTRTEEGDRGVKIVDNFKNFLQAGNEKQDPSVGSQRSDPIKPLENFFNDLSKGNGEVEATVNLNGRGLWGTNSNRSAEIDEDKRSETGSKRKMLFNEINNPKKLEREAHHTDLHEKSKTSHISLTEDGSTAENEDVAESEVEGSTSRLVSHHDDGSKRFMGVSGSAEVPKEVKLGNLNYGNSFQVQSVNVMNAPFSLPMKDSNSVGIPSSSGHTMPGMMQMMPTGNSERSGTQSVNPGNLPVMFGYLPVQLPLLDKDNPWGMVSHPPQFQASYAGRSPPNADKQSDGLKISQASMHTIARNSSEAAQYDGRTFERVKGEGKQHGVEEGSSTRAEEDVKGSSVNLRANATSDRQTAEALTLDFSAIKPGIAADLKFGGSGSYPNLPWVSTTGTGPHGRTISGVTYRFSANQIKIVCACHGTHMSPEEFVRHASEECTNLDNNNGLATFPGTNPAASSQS
T1 sequence (Q03405 with tags, fused parts or gaps DEL192-274): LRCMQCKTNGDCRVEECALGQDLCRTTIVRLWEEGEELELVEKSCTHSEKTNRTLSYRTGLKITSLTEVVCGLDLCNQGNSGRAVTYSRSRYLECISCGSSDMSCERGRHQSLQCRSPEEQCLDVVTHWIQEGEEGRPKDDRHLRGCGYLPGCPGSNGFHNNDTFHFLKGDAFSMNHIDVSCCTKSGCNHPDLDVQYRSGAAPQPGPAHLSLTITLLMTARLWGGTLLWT

B1: GhJAZ1: cotton JAZ1 protein, gene number Gh_A05G0260, sequence SEQ ID No. 4; prokaryotically expressed with His tag, about 30 KD (protein)
chain: MSSCSESTAMKPARSPEKPSFAQTCNLLSQYLKEKGSFGDLSLGMTCNVEANGTPVVPPPTMNLFPLNDKSDDVCGRNGGNPKNLTSMDLFPQQAGLASKDDSPNKLEPQTAPMTIFYGGQVIVFNDFPANKAKEIMLLASNSSSQSNNSFNPIPFTSSIARSPIESSIGVPPTSKPVHPAQRAVPGDLPIARRASLHRFLEKRKDRITAKAPYQINNSAAAPSLSGDNKSWLGLAAQSP
modifications: His tag
notes: prokaryotically expressed with His tag, about 30 KD
interaction with GhNINJA (GhNINJA): interacted | interaction with D3 domain deficient uPAR (D3 domain deficient uPAR): significantly weakened to none
